The numbers were not newly measured in publication PMC8316261, which cites them from elsewhere.

In this data set the target is C5aR (Homo sapiens) (UniProt P21730).
UniProt P21730, sequence (P21730 whole entry): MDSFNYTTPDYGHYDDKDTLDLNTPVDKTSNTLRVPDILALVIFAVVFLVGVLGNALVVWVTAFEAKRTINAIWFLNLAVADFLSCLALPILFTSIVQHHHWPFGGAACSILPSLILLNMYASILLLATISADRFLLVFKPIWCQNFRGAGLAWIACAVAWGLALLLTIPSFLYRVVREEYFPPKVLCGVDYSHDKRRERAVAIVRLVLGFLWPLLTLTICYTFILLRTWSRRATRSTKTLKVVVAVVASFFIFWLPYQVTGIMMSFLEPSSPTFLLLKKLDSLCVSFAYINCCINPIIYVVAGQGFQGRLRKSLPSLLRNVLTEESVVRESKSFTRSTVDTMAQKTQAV

For orientation: Kd means a measure of binding affinity in units of concentration. In the case of C5a C5a (from UniProt P01031), the Kd is 1 nM.
